Measured values: IntAct's records for PubMed 22321644

B1: Staphylokinase (Staphylococcus aureus (strain N315)), Q99SU7 (parent)
chain: MLKRSLLFLTVLLLLFSFSSITNEVSASSSFDKGKYKKGDDASYFEPTGPYLMVNVTGVDSKGNELLSPHYVEFPIKPGTTLTKEKIEYYVEWALDATAYKEFRVVELDPSAKIEVTYYDKNKKKEETKSFPITEKGFVVPDLSEHIKNPGFNLITKVVIEKK

Variants of: B1
Conditions: with plmn_human PLG

| Variant | effect of a mutation on the interaction |
| --- | --- |
| Y71F | decreasing interaction |
| V72F | decreasing interaction |

Variants of: B1
Conditions: with plmn_human PLG
Remark: another data set of the same source

| Variant | effect of a mutation on the interaction |
| --- | --- |
| P69L | disrupting interaction |

Variants of: B1
Conditions: with plmn_human PLG
Remark: another data set of the same source

| Variant | effect of a mutation on the interaction |
| --- | --- |
| P69L | decreasing interaction |

Variants of: B1
Conditions: with plmn_human PLG
Remark: another data set of the same source

| Variant | effect of a mutation on the interaction |
| --- | --- |
| V72A | disrupting interaction |

Variants of: B1
Conditions: with plmn_human PLG
Remark: another data set of the same source

| Variant | effect of a mutation on the interaction |
| --- | --- |
| V72A | decreasing interaction |

Variants of: B1
Conditions: with plmn_human PLG
Remark: another data set of the same source

| Variant | effect of a mutation on the interaction |
| --- | --- |
| V72Y | decreasing interaction |
